# Measurements from the DeepSol protein solubility set.
# Assay: soluble on expression in E. coli; label from the status in PepcDB or PDB records
row,Sequence,soluble on expression in E. coli
1,MVSQVRQNYHSDCEAAVNRMLNLELYASYTYSSMYAFFDRDDVALHNVAEFFKEHSHEEREHAEKFMKYQNKRGGRVVLQDIKKPERDEWGNTLEAMQAALQLEKTVNQALLDLHKLATDKVDPHLCDFLESEYLEEQVKDIKRIGDFITNLKRLGLPENGMGEYLFDKHSVKESS,soluble
2,MVTNVEGDMNYCCKVDLKPWHFWNKKGYKSFDVEGNPVEVYWDFRSAKFTSSPEPSSDFYVALVSEEEVVLLVGDYKKKAFKRTKSRPALVEAALFYKKENVFGKKCFTTRAKFYDRKKEHEIIVESSTSGPKEPEMWISIDGIVLIQVKNLQWKFRGNQTVLVDKQPVQVFWDVYDWLFSMPGTGHGLFIFKPGTTEDSDMEGSGHGGGGGGESDTSTGSRYYSTKSSNPWPPEFCLFLHAYKLE,soluble
3,MVTPFPEVSEWLCIGQIVGAHGLRGEVKVKPFSDFPERFTVPGCRWLRSPRQPQPYAVTLLRGRFLPRAEQFVVTFAEISDRTAAEALKGAEILVPASDRPPLAANEYHLMDLIGLAVYHQGERVGEVVGLVNAGNDLLEVQLLDPAPKAPQSVYIPFVPAIVPVVDLAARRIEIDPPLGLLPLEHHHHHH,not soluble
4,MVVGDFPIETDTIVIGAGPGGYVAAIRAAQLGQKVTIVEKGNLGGVCLNVGCIPSKALLHASHRFVEAQHSENLGVIAESVSLNFQKVQEFKSSVVNKLTGGVEGLLKGNKVNIVKGEAYFVDNNSLRVMDEKSAQTYNFKNAIIATGSRPIEIPNFKFGKRVIDSTGALNLQEVPGKLVVVGGGYIGSELGTAFANFGSEVTILEGAKDILGGFEKQMTQPVKKGMKEKGVEIVTEAMAKSAEETDNGVKVTYEAKGEEKTIEADYVLVTVGRRPNTDELGLEELGVKFADRGLLEVDKQSRTSISNIYAIGDIVPGLPLAHKASYEAKVAAEAIDGQAAEVDYIGMPAVCFTEPELATVGYSEAQAKEEGLAIKASKFPYAANGRALSLDDTNGFVKLITLKEDDTLIGAQVVGTGASDIISELGLAIEAGMNAEDIALTIHAHPTLGEMTMEAAEKAIGYPIHTM,not soluble
5,MVVKEILRLLFLLAMYELGKYVTEQVYIMMTANDDVEAPSDYEKIRAEVSWLEHHHHHH,not soluble
6,MVVNKRLILILLFILNTAKSDELSWKGNDFTLYARQMPLAEVLHLLSENYDTAITISPLITATFSGKIPPGPPVDILNNLAAQYDLLTWFDGSMLYVYPASLLKHQVITFNILSTGRFIHYLRSQNILSSPGCEVKEITGTKAVEVSGVPSCLTRISQLASVLDNALIKRKDSAVSVSIYTLKYATAMDTQYQYRDQSVVVPGVVSVLREMSKTSVPTSSTNNGSPATQALPMFAADPRQNAVIVRDYAANMAGYRKLITELDQRQQMIEISVKIIDVNAGDINQLGIDWGTAVSLGGKKIAFNTGLNDGGASGFSTVISDTSNFMVRLNALEKSSQAYVLSQPSVVTLNNIQAVLDKNITFYTKLQGEKVAKLESITTGSLLRVTPRLLNDNGTQKIMLNLNIQDGQQSDTQSETDPLPEVQNSEIASQATLLAGQSLLLGGFKQGKQIHSQNKIPLLGDIPVVGHLFRNDTTQVHSVIRLFLIKASVVNNGISHGLEHHHHHH,soluble
7,MVVNVFISAVTTDTLSRKEAVAWVNNLLKSHFTKVEEMASGAAYCQLTHLLFNAINLKKVKFNPRSEPDVLNNWKVLTTTWKDLGIDKPVDVEKMKKAKFQDNMEFLQWFYKFYNANLTTEPEEYDAVGARFGEDLPALKGSTGSRPVAAPARPVAAAPPKPRPAAPAVAAPAVKASVPPTVRNGTRPAPATSAGTRRADPSASEELLKQEIEKHKAASDEWETTAKEMETEREYYYSILQRVESLANEAEESGSSTVDVAALKTILYAGNEDTEQVDEIENEHLVESLQANLDDTETF,soluble
8,MVVSMRWLLSVFTFLCMKYSEASNPRAIILQNFMDSNKEAVKNLKDDNVLSKALVKTFGLNSSSSSSLSDESSSNLVLMDSTTPCDSGWTKSTVNGMCYKIATADTTWYAAEDWCYSQRYGSHLTSVHSEAEAQWIAATYVSTGWFPYMDNWLGLRRSCDNSTYIWTDGTPVDYLWWQPGYPGSGDPEKSCVTIWVTSLLKLNPGYVQGQFDDIWDCGTNLATPTCRYDPTSTAPHIKYDTSYTCASTTTVSTTSTVTTTKPTTTTTTPTTTTTTPTTTTTESTTTETTSTTTPTTTTTAPTTTTTASTTTFKTTTITTTTQTTTPTTTATTTKPTTTTPTTTRTPVDCSAKCDPFWVSYSDGCYAKIQGTATFETAKLGCQSVGGEMAVITDAAMNEAIRLAFSTNIDSSVSNQAWIGTSSYSNWAPGKPDKAQGVAYSSYCNVIALSVVNKGKDFGFSRGVWTDYPCSLKQEFAICKRI,not soluble
9,MVVYGADVICASCVNAPTSKDIYDWLQPLLKRKYPNISFKYTYIDITKDNDNLTDHDLQFIERIEQDELFYPLITMNDEYVADGYIQTKQITRFIDQKLVNE,soluble
10,MVWFFFSCDEYNEEILKTNSGYWKETVSNTPIIGKWITSNGVKIGEKQVLVFQSYENINGSKSDWVMHVYQPTFLPPNQVIFRIYDV,soluble
11,MVYLKGQIRKALSGFYYVYADGETYQTRARGNFRNRKITPLVGDEVLFESDNLTDGYVLEILPRRNELVRPPVANVDLGVVVMSMVSPNFSFNLLDRFLVSLEYKDIEPVIYLTKVDLLDEPQRQQVTEIKQIYEALGYAVIASEDVEATKELERFFPERLTVFMGQSGAGKSTLLNQISPELQLATAEISQSLGRGKHTTRHVELIPLYDGLVADTPGFSAIDFLEMEAVELPKQFPEFVAAASHCKFRECMHHKEPGCEVKRQVEAGTIATSRYENYLQFLMEIENRRPVYKKKS,not soluble
12,MWDSENIEELSLVIGIGLDKPDDENLELTQQILVPKIISAKEGSSSDPTQLSITKGKTVHQMMRTSALKHKPTFSQHLRLILLSKSVIADQIGMDAIINQFVRDNGTRRSSYVFITNGRTKDIFNMNDEGEPASNVIYDLTENNKVTIRTMEPVTLGEISEHLTSDDSFLIPHVGKENGKLAINGASIIKNKLWHRDLTPIEVQNISLFSGTVEGGVIDLKRDGHLFSYEVYSSNRKIKTAYKDGKFKFTVTRNIEGRLSEDWNPNEDSFKDSYIKSIEKTVEKRVHETVTSFITEKLQKEIKADVTGLGNEVRIHYPQKWKKISRKWDDDYFSNAEIDYRVNVIVRDFGTKGANKLEHHHHHH,not soluble
13,MWDTSKDYRLLVAEKSVELFIRTIEGAKFRGQWDKKRSIQLAKEMIPDIQALRYSYIDPEELVDTPQMKDLKEKAKGIIEALGGEDWHHKFLSQASREDREKVEEQVARIKFFLNTILNLDRRLKLGKINDPVIAVDIVVGEVMSVGKHPSADRLLVTNVNIGERAVTVVTNDLTVKEGNRVAVALLPPRNFFGIVSEGMFLGAGEGVLKNVKGEIGGLPKGIPLEALNETRNAVEAFLKG,soluble
14,MWKIMRSWKCGGMRWAHRQRPSHELLSQLSFDQHYKIRSNIELLIQDYASKPIAPLNYEYFLQYRPPLTKKEEYMLTIKTINLLLSLTCKRLNAIQRLPYNAVINPHIERTNSLYLKSLQTLLSIAYPYELHNPPKIQAKFTELLDDHEDAIVVLAKGLQEIQSCYPKFQISQFLNFHLKERITMKLLVTHYLSLMAQNKGDTNKRMIGILHRDLPIAQLIKHVSDYVNDICFVKFNTQRTPVLIHPPSQDITFTCIPPILEYIMTEVFKNAFEAQIALGKEHMPIEINLLKPDDDELYLRIRDHGGGITPEVEALMFNYSYSTHTQQSADSESTDLPGEQINNVSGMGFGLPMCKTYLELFGGKIDVQSLLGWGTDVYIKLKGPSKTALLSKK,soluble
15,MWQRIRLLQTLVSQKGAATAAAGAASSSPTAAAAAATTAAPPSPAPSVAADNERSFLRNLIPMRVYSSGPPSIYLRHAFLNQDRLIRRFLGALEAVPLPSLPRLLLAEGFQRMLEGDVPQRELRELFEDAEVECRKMLLHMDVSKSGHRRYHDSHADPRDQEMWHAVRHDPLRRLLAHELRAACSHYARLMGVSSSPYVPAAVIVRTIIASDVRTDNFLVKMTLAFERHPRNVETGEPVGEAMPPVVEELMKELLLLERDAFGCFRFDPRGDNHHLVHSLKLADITKTPRSFSVMRDPLMKRYGNYCVECEEVHKGRWNQYKVHCGPEDHRIDPALPLFESVVATDPITGGALNMLVHYDEPICLRHKHSLREEKGNFGHTEVFELAMDVTNRTFWERYFLDR,soluble
16,MYDYGTFAFASKADVLDQAKAFWNPDKTQFWTDSGVDLVIDRREGYFLWDMSGRRLIDLHLNGGTYNIGHRNPEVMQAISEGMAHFDVGNHHFPSVARTALAKRLVETAPASIKKVAFGSGGGEAIDIALKSARHGTQRRKIVSVIKAYHGHTGLAVATGDDRFAKLFLADRPDEFIQVPFGDIGAMEAALAGGDVAAVIMETIPATYGFPLPPPGYLEAVKALTERHGTLYIADEVQTGLMRTGELWGITKHGIDPDIIVTGKGLSGGMYPISAVLLGERAARWLDQDGFGHISTFGGAELGCVAAIKTLEICTRPEVRSMVHYIADIFDTGLRRIQADYPDWFVGIRQNGVVIGLEFDHPEGAKFVMRELYENGVWAIFSTLDPRVLQFKPGLLLSRELCEDVLDRLEVAVGRARATVTGRRNG,not soluble
17,MYFIAGMFDGKEKVNREQPPMPTTDGVEYPRAASWAAGNCANVLNDDKGKQLFRVFLFQSLAEENLAFLEAMEKLKKMKISDEKVAYAKEILETYQGSINLSSSSMKSLRNAVASETLDMEEFAPAIKEVRRLLENDQFPRFRRSELYLEYLEELLPRSYAEKWAQSFEGLLGNHVGRHHFRIFLRSIHAEENLRFWEAVVEFRSSRHKANAMNNLGKVILSTYLAEGTTNEVFLPFGVRQVIERRIQDNQIDITLFDEAIKHVEQVLRNDPYVRFLQSSQYIDLLSKLK,not soluble
18,MYGKLNDLLEDLQEVLKHVNQHWQGGQKNMNKVDHHLQNVIEDIHDFMQGGGSGGKLQEMMKEFQQVLDEIKQQLQGGDNSLHNVHENIKEIFHHLEELVHR,soluble
19,MYINNKLTEDLLLGEIYYLISKTYFFIENIQKAINFAFLAKSEFEKVYNKKAYAKSLELLAEEHAKVGDLESAIAYSKQSLNVYKELEQLDKISSIEDSLGKLFFEFDNIEESFEHYNRAIKIREENTDSKLLDTLFNLCENHIKTKNMNKCIEILNEIKNKLNVSDVNRLIEYKILTFRIEVLQNNIKEAENILLDTLEIAKRNDMKKKEADISIRLGKFYLELKRDYEAAKYLDKGINNLKNLGVIKSLEHHHHHH,not soluble
20,MYKILEKKEIAMRNTWYKVYAPHVAKKVQPGQFVIVRAFPNGERIPLTPVMWDREEGWIVLIVFTRGKTTMRMAVELKEGDSLLNVAGPLGTPVPMEKFGKILAIGAYTGIVEVYPIAKAWQEIGNDVTTLHVTFEPMVILKEELEKAVTRHIVEPVPLNPNQDFLANMKNVSQRLKEKVRELLESEDWDLVFMVGPVGDQKQVFEVVKEYGVPMKVDLHPIMVDGTGMCGACRVTVGGEVKFACVDGPEFDAYQVDWDELIHRVGFYAKLEKLALEKYMEELKAKGVILEHHHHHH,not soluble
21,MYKPTERNAQNSLAMMNYAYDTSLQETMILTEAFHTDRVICDNGSLYKFIWVQEGKLTLIVDHVEIEMEQDEIISVSNLHRTEFKNVSGRYLALLFNENFYGIYKHEKEVSCSGVLFNGTSGIVHLRLPIADSELLHEVVDRMVTEYILRDNLQGEMLRLLLKRFIILCTRLARKQLSGFPVNEKGFDIIQRYYVLVDNHFKEKKQVQAYAALLHRSPKTLSNLFAAYGMPSPLKIIQERVVTEAKRLLLHTSHSIKEISVILGFESVGTFSRFFKNMTGENTSAYRKRLQ,not soluble
22,MYKVSHGLSMVHEDEMGVNAPMDHQRVISKLNVGLGKLFYYDKAISLEPLPETMLDEGRTSRYDGPPTPDLILYDKARDHIPVIIEVCHTRGLKGDLQKVVSLIEDFPYDILEGFVYNYRTEHWFRYRKGDNGIATETSFSEILQLDLNQFL,not soluble
